Test: soluble on expression in E. coli; label from the status in PepcDB or PDB records

Sequence	soluble on expression in E. coli
MIREKALEFHKNNFPGNGKIEVIPKVSLESREELTLAYTPGVAEPCKEIARDPGKVYEYTSKGNLVAVVSDGSRILGLGNIGPLAGLPVMEGKALLFKRFGGVDAFPIMIKEQEPNKFIDIVKAIAPTFGGINLEDIASPKCFYILERLREELDIPVFHDDQQGTAAVVLAGLLNALKVVGKKISEITLALFGAGAAGFATLRILTEAGVKPENVRVVELVNGKPRILTSDLDLEKLFPYRGWLLKKTNGENIEGGPQEALKDADVLISFTRPGPGVIKPQWIEKMNEDAIVFPLANPVPEILPEEAKKAGARIVATGRSDYPNQINNLLGFPGIFRGALDVRARTITDSMIIAAAKAIASIVEEPSEENIIPSPLNPIVYAREARAVAEEAMKEGVARTKVKGEWVEEHTIRLIEFYENVIAPINKKRREYSKAITRA	soluble
MSAEYGQYGYYGGAGGAQTTTTPAAALAASIPATSVYGEQRPTFSEDGTGAPYSTILNLVGSAAVNSDISYDTSSKDPHMIRARVFIGNIARAIITRDDIIELFRPFGKIIAVNYFAQQGFGFVQFNEAGSADESCRSLNGMSWKACCLDVHLAMLGSLRKPTGNEGRQGNTIAPAPLPVGKPLTQHAVDTSAQSAKRPYEDEEYEIFKQNKRNKQFANGDTTINEQLAPNEMCDTMVCGYCRFVTSDFEEFKEHRIAGCNKYKDPEEPRHRLKCATCSQRFLGAWGLLEHLTDFHRMLLYTEEKMTPNDLAQMRGGSVSTPSSIPETPASGSAAPAAPNSANSTPSHHIVEGAPLSYSSNNGTPQI	not soluble
MGSDKIHHHHHHMNMLLSEEQRDALQELMNISMGQAANSLARLIEAKITLSIPKISDVTPEQFVSMLSDQTMWYTRQSFLGSIKGEVISTLSKQGCDAIGKLMDYQPPLTQDRLNELLLELANILAGACLTGFAEQLSLNAKLSMPTMYSATSQHYHYRWASTLMMEVEFKVEVSQFDSKIVICLEEASVQTLLAKLQQLLE	not soluble
MAGDPMNSRMKIKKAYEYMKSFHQHDTTGHDIAHVERVYNNACYIAKRENITDTLVIELSSLLHDTVDSKLTDEILAYDQLKQFLSTLDLSSEISQQVLYIIKHMSYRAGKNNHVKLSIDGEIVRDADRLDAIGAIGIARTFQFSGHFGEPMWTETKLSNEELHTSLVEELDNSAIKHFYEKLFKLKDLMHTPTAKKLAEERHQFMIQYLKQFMSEWNFNKELEHHHHHH	soluble
MSDVDVFVIDDDFDPLADLSLDDGERDDAEADYLPPIPDADKSVVPPVVPLSATERIEKLLAGIPGQQFRLLHAVEFCTEPKTMDEAVADLDAAYPNTTSVYGSAQVVQLLERDGALERIVDEDAAHAAAGDAADTPAEDEGFISVTPAPPCRYRATQAGLDAVAAHVNEGLVAERISEDERYLPIFQRVLEMCAREGGCPTKELDQAVDGDPLCQEPRRFCGFFRGKLEETGAIEWRDAWTITDLGRSVLASGLFAAASPSER	not soluble
MAHHHHHHSLSGPRVERLEVSAYTVPTDYPESDGTLQWDSTTMILVEAHGGGRKGLGYTYGDVSVGRFVESKLAGVAEGSDALSPPAVWARMQAAIRNAGRPGVGAMAVSAVDIALWDLKARLLGLPLADALPRFHAEVPVYGSGGFTSYPLRRLQEQLGGWAAAGIPRVKMKVGREPEKDPERVRAAREAIGESVELMVDANGAYTRKQALYWAGAFAREAGISYLEEPVSSEDREGLRLLRDRGPGGVAIAAGEYEWTLPQLHDLAGCVDILQADVTRCGGITGLLRVDGICRGHQIPFSAHCAPAVSAHACCAVESLLHLEYFHDHARVERLLFDGTLDPEGGSLRPDPDRPGLGLELKRSEAGKYAA	soluble
MTPVQLKNYLEQLVGNQIKTSTMIWGPPGIGKSSIVAQIAEEGKLRFIDLRLSQLAPTDLRGLPVAIPTSKTKPQTGTSAWYPPEFLPKDGAGILFLDELNMAPPAMQGVAQQLILDRRVGSYEVPTDWFIWAAGNRKEDRASVFEMPAPLANRFLHLDVQPDFESFKQYALEQKYHEQVIAFLSFRPGLIHKLDLQRPAWPSPRSWAIANGLHQVNLDVSPAVGEGCAAEFSAFVQLYKDLPDLEAIFRGQGQNIGFPTEPSSGYASTIGLAVRAKDATAGVNAFHWLTDKADSEWVQLFVTDMAGQLRRAGHLGALSIMAKKEPKLKQFMQGYQELLAILEHHHHHH	soluble
MSLKWSAIPFQTLYRSIESGEFDFDLFKEVLPDLQNLNLNTDKLKNNASRSQLEKGEIELSDGSTFKVNQEFIFEAISLSDELNLDEIVACELILSGDTTANNGKVQYFLRRQYILQIVSFIVNCFHEDTELYQELIKNGALVSNILSAFKFIHTQLSEIKQQINKAQILENYNALFQQNIKFRRDFLLREYDILSQILYGLVDKGAIMKNKDFILSLLHHVSELDSNDFFIIYYTPAFFHLFASLRVLPDADVKLLHSQFMKDLKDDSIYTKPVKVALIFIFFAYFIGWCKEDPKRRADTMDFKTDVDEPMTSAVELGAIEQILIFAADTSIVEQDKSMELFYDIRSLLERHIPRLIPKQLLDDEKIFSQTTNSTYNPASATDNMSGRGLWNPSYPGMMSTTGTARLNSMPNNVNEYSYTTIVLSDQTQEFFLSSFDDVLQTIITDCAFLLTKIKDAEEDSLLSGEDLTLDDISLKADLERFFLSIYFFYASRPEYSCTFWSDKESNAYGFIEWCSRCNDNLMRSCFYLMVSSLSFGPENALNVYHYFGENSSISWKNIAQCLSDYTKKISNFNSSLHKRQQFSESTHNDIDSTAVALEEGLNEEAVIFLSSLLTLVGSVTYQVDEDVKSSLSKVFSDVLFEFTKINTPLVGAAFKVISNLVPKLESSRTKFWSFLDSLIFKDSSLNYSSESYRNAFTNVLTKYSDVLGFLQLFHNLISIHSRENNSEYMVFGKLAFPTRLGQGYRKVGIWPYFDYIFNDILAHVDQIVDIRNKRAVQLPILKIIYTGLCSFDYSVILNSIPAAANLDALVDCENFFNYVQECPAIPIFNYIFTEKIYKSIFNVVDVGVDQLSIELEGGKNQAELLQLAVKIINKVLDYQETYVEELFPIVKKHGKTDYFLPKNYSLHGLRSFYDAIFFNIPLVAHLGLYVGVDDQILATNSLRILAKLSERSNGSVASLSEGHHHHHH	soluble
GMDDLSEFVDQVPLLDHHCHFLIDGKVPNRDDRLAQVSTEADKDYPLADTKNRLAYHGFLALAKEFALDANNPLAAMNDPGYATYNHRIFGHFHFKELLIDTGFVPDDPILDLDQTAELVGIPVKAIYRLETHAEDFMLEHDNFAAWWQAFSNDVKQAKAHGFVGFKSIAAYRVGLHLEPVNVIEAAAGFDTWKHSGEKRLTSKPLIDYMLYHVAPFIIAQDMPLQFHVGYGDADTDMYLGNPLLMRDYLKAFTKKGLKVVLLHCYPYHREAGYLASVFPNLYFDISLLDNLGPSGASRVFNEAVELAPYTRILFASDASTYPEMYGLAARQFKQALVAHFNQLPFVDLAQKKAWINAICWQTSAKLYHQERELRV	soluble
MSLNKVSLAQIAKAAGVSKMTASRVLRDEGGFSESTRARVMAEIDRLGYVPNRLATVFAGDQRSTFVGVSIPELGNEIFAQVLEGIDRKLGAFGHQTVLGMTEHALEQEEKWLETVLSWQPAGLIVTGRSHTPKSIQLLSGAGIPLVEIWDFNSSPLDMSVGLNHFDSGYSMGRYLTGLGYRQFGYVGTSHDTANAASARLAGYAKVIGDSGGSLKKQLLLKDAPGFYTGYYGTEQLLAANSDVEVIYYQNDNMAVGGLNYCQKRGLSIPGDIGIAGWGDLPIASILPYRLTSTAVPHLRIGMIAAEMVLSQINGEARRRSQDVGFTLIPGSTVRSQLEEGHHHHHH	soluble
MEAVDLAFANYAERFARSCKGDGWRRLVERAIRLYLTPVLGKKALPAINRTDVVSVFDNMPADQVANRRNVFAVLRRLFRWAVSRGDLDRSPMEGMLEHHHHHH	not soluble
MAHHHHHHMQRDVYASLIKKRHKQMVPLLIHQVSGDITRENIFDEVFHGYKLRRIVLMTHMAATPATLPRLPRDIIVSDFDKLKAIHQPHFHYKLLPLLCTDFEAFSALQGICASANSPFTIEDRKDPQGLTHRLSNGCSERQALCEFFDPHIAPAEKLVPVFSRKLPISAVVFDGLLLKQNYPKVAALLTVHEAASEKSIIERAIMRDFFVSPLYTKVSGNSDVAQSLRLVHHCTHFMALKRAVGSDAPSRQSLMRLAAEKKLFMYEKIGDEYQFVH	soluble
MSQVSTEFIPTRIAILTVSNRRGEEDDTSGHYLRDSAQEAGHHVVDKAIVKENRYAIRAQVSAWIASDDVQVVLITGGTGLTEGDQAPEALLPLFDREVEGFGEVFRMLSFEEIGTSTLQSRAVAGVANKTLIFAMPGSTKACRTAWENIIAPQLDARTRPCNFHPHLKK	soluble

Source: the DeepSol protein solubility set
